What follows are molecules tested on K562 CRISPRi cells (assay: Constant region variant library pooled growth screen, K562). Settings: sgRNA constant region variants; activity relative to the original, un-modified constant region cr995.
Format: cell-based, human
Source text: We calculated relative activities for each targeting sequence:constant region pair by normalizing its phenotype to that of the targeting sequence paired with the unmodified constant region, identifying 409 constant region variants that on average conferred intermediate activity (0.1-0.9, FIG. 5B). Ten variants selected for individual evaluation also mediated intermediate levels of mRNA knockdown (FIG. 6B). Mapping the activities of constant region variants with single base substitutions onto the structure recapitulated known relationships between constant region structure and function (FIG. 5C).
The sequences in the library of modified constant regions were derived from the sgRNA (F+E) optimized sequence (23) modified to include a BlpI site (15). Each modified constant region was paired with 36 sgRNA targeting sequences (3 sgRNAs targeting each of 10 essential genes and six non-targeting negative control sgRNAs). The cloning strategy (described below) allowed the mutation of most positions in the sgRNA constant region. A variety of modifications were made, including substitutions of all single bases not in the BlpI restriction site (which is used for cloning), double substitutions including all substitutions at base-paired position pairs not before or in the BlpI site, and a variety of triple, quadruple, and sextuple substitutions, including base-pair-preserving substitutions at adjacent base-pairs.
The library was ordered and cloned in two parts. One part consisted of ˜100 modifications to the eight bases upstream of the BlpI restriction site. Constant region variants with mutations in this section were paired with each of the 36 targeting sequences, ordered as a pooled oligonucleotide library (Twist Biosciences), and cloned into pCRISPRia-v2 as described above. The second part consisted of ˜900 modifications to the 71 bases downstream of the BlpI restriction site. This part was cloned in two steps. First, all 36 targeting sequences were individually cloned into pCRISPRia-v2 as described above. The vectors were then pooled at an equimolar ratio and digested with BlpI (NEB) and XhoI (NEB). The modified constant region variants were ordered as a pooled oligonucleotide library (Twist Biosciences), PCR amplified with Phusion polymerase (NEB), digested with BlpI (NEB) and XhoI (NEB), and ligated into the digested vector pool, in a manner identical to previously published protocols and as described above, except for the different restriction enzymes.
Screens with the compact mismatched sgRNA library and the constant region library were conducted largely as described above, with smaller modifications during the screening procedure and an updated sequencing library preparation protocol. Briefly, the libraries were transduced in duplicate into K562 CRISPRi (both libraries) or HeLa CRISPRi cells (compact mismatched sgRNA library) as described above. K562 replicates were maintained separately in 0.15 to 0.3 L of RPMI-1640 in 0.3 L spinner flasks for the course of the screen. HeLa replicates were maintained in sets of ten 15-cm plates. Cells were selected with puromycin as described above (K562: 1 day of 0.75 μg/mL and 1 day of 0.85 μg/mL; HeLa: 2 days of 0.8 μg/mL and 1 day of 1 μg/mL). The remainder of the screen was carried out at >1000× library coverage (K562 compact mismatched sgRNA library: >2000×; HeLa compact mismatched sgRNA library: >1000×; K562 constant region library: >2000×). Multiple samples were harvested after 4 to 8 days of growth. For the drug screen, 10 μM lovastatin (ApexBio) or an equivalent volume of DMSO (vehicle) was added to flasks at t=0, and 3 days later cells were pelleted and re-suspended in fresh medium. Lovastatin (12 μM) or DMSO was again added after 5 and 9 days of growth, with media exchanges 3 days after drug supplementation. Multiple samples were harvested after 4 to 8 days for the K562 and HeLa growth screens. […]

| Molecule | Mean relative activity |
| --- | --- |
| cr612 (nucleic acid, listed as DNA, chemistry not fully specified) guide: GTTTAAGAGCTAAGCTGGATACAGCATAGCAAGTTTAAATAAGGCTAGTCCGTTATCAACTTGAAAAAGTGGCACCGAGTCGGTGCT | 1.064 |
| cr116 (nucleic acid, listed as DNA, chemistry not fully specified) guide: GTTTAAGAGCTAAGCTGGAAACAGCATAGCAAGTTTAAATAAGGCTAGTCCGTTATCAACGTGAAAACGTGGCACCGAGTCGGTGCT | 1.064 |

Same assay, conditions: sgRNA constant region variants; activity relative to the un-modified constant region cr995

| Molecule | Mean relative activity |
| --- | --- |
| cr284 (nucleic acid, listed as DNA, chemistry not fully specified) guide: GTTTAAGAGCTAAGCTGGAAACAGCATAGCAAGTTTAAATAAGGCTAGTCCGTTATCAACTTGAGAAAGTGGCACCAAGTTGGTGCT | 0.9497 |
| cr693 (nucleic acid, listed as DNA, chemistry not fully specified) guide: GTTTAAGAGCTAAGCTGGAAACAGCATAGCAAGTTTAAATAAGGCTAGTCCGTTATCAACTTGAAAAAGTGGCTCCAAGTTGGAGCT | 0.9369 |
| cr421 (nucleic acid, listed as DNA, chemistry not fully specified) guide: GTTTAAGAGCTAAGCTGGAAACAGCATAGCAAGTTTAAATAAGGCTAGTCCGTTATCAACTTGAAAACGTGGCACCGAGTCGGTGCT | 0.9381 |
| cr231 (nucleic acid, listed as DNA, chemistry not fully specified) guide: GTTTAAGAGCTAAGCTGGAAACAGCATAGCAAGTTTAAATAAGGCTAGACCGTTATCAACTTGAGAAAGTGGCACCGAGTCGGTGCT | 0.9485 |
| cr553 (nucleic acid, listed as DNA, chemistry not fully specified) guide: GTTTAAGAGCTAAGCTGGAAACAGCATAGCAAGTTTAAATAAGGCTGGTCCGTTATCAACTTGATAAAGTGGCACCGAGTCGGTGCT | 0.9385 |
| cr142 (nucleic acid, listed as DNA, chemistry not fully specified) guide: GTTTAAGAGCTAAGCTGGAAACAGCATAGCAAGTTTAAATAAGGCTAGTCCGTTATCAACTTGAAAAAGTGGCACCTAGTAGGTGCT | 0.9406 |
| cr983 (nucleic acid, listed as DNA, chemistry not fully specified) guide: GTTTAAGAGCTAAGCTGGAAACAGCATAGCAAGTTTAAATAAGGCTAGTCCGTTATCAACTTGAAAAAGTGGTACCGAGTCGGTGCT | 0.9491 |
| cr719 (nucleic acid, listed as DNA, chemistry not fully specified) guide: GTTTAAGAGCTAAGCTGGAAACAGCATAGCAAGTTTAAATAAGGCTAGTCCGTTATCAACTTGAAAAAGTGGCACCGAGTCGGTGAT | 0.9381 |
| cr285 (nucleic acid, listed as DNA, chemistry not fully specified) guide: GTTTAAGAGCTAAGCTGGAAAAAGCATAGCAAGTTTAAATAAGGCTAGTCCGTTATCAACTTGAAAAAGTGGCACCGAGTCGGTGCT | 0.9449 |
| cr953 (nucleic acid, listed as DNA, chemistry not fully specified) guide: GTTTAAGAGCTAAGCTGGAAACAGCATAGCAAGTTTAAATAAGGCTAGTCCGTTATCAACTTGAAAAAGTGGCACCGCGTCGGTGCT | 0.9337 |
| cr908 (nucleic acid, listed as DNA, chemistry not fully specified) guide: GTTTAAGAGCTAAGCTGGAAACAGCATAGCAAGTTTAAATAAGGCTAGTCCGTTATCAACTTGAGAAAGTGGCATCGAGTCGATGCT | 0.9455 |
| cr823 (nucleic acid, listed as DNA, chemistry not fully specified) guide: GTTTAAGAGCTAAGCTGGAAACAGCATAGCAAGTTTAAATAAGGCTAGTCCGTTATCAACTAGAAATAGTGGCACTGAGTCAGTGCT | 0.936 |
| cr703 (nucleic acid, listed as DNA, chemistry not fully specified) guide: GTTTAAGAGCTAAGCTGGAAACAGCATAGCAAGTTTAAATAAGGCTAGTCCGTTATCAACTTGAGGAAGTGGCACCGAGTCGGTGCT | 0.9472 |
| cr371 (nucleic acid, listed as DNA, chemistry not fully specified) guide: GTTTAAGAGCTAAGCTGGAAACAGCATAGCAAGTTTAAATAAGGCTAGTCCGTCAGCAACTTGAAAAAGTGGCACCGACTCGGTGCT | 0.9355 |
| cr630 (nucleic acid, listed as DNA, chemistry not fully specified) guide: GTTTAAGAGCTAAGCTGGAAACAGCATAGCAAGTTTAAATAAGGCTAGTCCGTTGCCAACTTGAAAAAGTGGCACCGACTCGGTGCT | 0.9325 |
| cr718 (nucleic acid, listed as DNA, chemistry not fully specified) guide: GTTTAAGAGCTAAGCTGGAAACAGCATAGCAAGTTTAAATAAGGCTAGTCCGTTATCATCTTGAAAAAGAGGCCCCGAGTCGGGGCT | 0.9447 |
| cr291 (nucleic acid, listed as DNA, chemistry not fully specified) guide: GTTTAAGAGCTAAGCTGGAAACAGCATAGCAAGTTTAAATAAGGCTAGTCCGTTATCAACTTGAAAAAGTGCCATCGAGTCGATGGT | 0.9321 |
| cr822 (nucleic acid, listed as DNA, chemistry not fully specified) guide: GTTTAAGAGCTAAGCTGGAAACAGCATAGCAAGTTTAAATAAGGCTAGACCGTTATCAACTTGAACAAGTGGCACCGAGTCGGTGCT | 0.9333 |
| cr576 (nucleic acid, listed as DNA, chemistry not fully specified) guide: GTTTAAGAGCTAAGCCGGAAACAGCATAGCAAGTTTAAATAAGGCTAGTCCGTTATCAACTTGAAAAAGTGGCACCGAGTCGGTGCT | 0.935 |
| cr529 (nucleic acid, listed as DNA, chemistry not fully specified) guide: GTTTAAGAGCTAAGCTGGAAACAGCATAGCAAGTTTAAATAAGGCTAGTCCGTTATCAACTTGAAAAAGTGGCACTGAGTCAGTGCT | 0.9488 |
| cr546 (nucleic acid, listed as DNA, chemistry not fully specified) guide: GTTTAAGAGCTAAGCTGGAAACAGCATAGCAAGTTTAAATAAGGCTAGTCCGTTATCAAATTGAGAAATTGGCACCGAGTCGGTGCT | 0.9326 |
| cr253 (nucleic acid, listed as DNA, chemistry not fully specified) guide: GTTTAAGAGCTAAGCTGGAAACAGCATAGCAAGTTTAAATAAGGCTAGTCCGTTATCAGCCTGAAAAGGCGGCACCTAGTAGGTGCT | 0.9384 |
